Measured values taken from PMC7876137, “Functional and structural characterization of a flavoprotein monooxygenase essential for biogenesis of tryptophylquinone cofactor” (Nature Communications, 2021).

Target: T1, crosslinked QhpC (quinone-less QhpC with three intra-peptidyl thioether bonds, the 28-residue leader peptide … (Pseudomonas putida IFO 15366 (NBRC …, three intra-peptidyl Cys-to-Asp/Glu thioether bonds (Cys7-Glu16, Cys27-Asp33, Cys41-Asp49 as drawn in Supplementary Fig. 5); Cys37 and Trp43 free)
T1 construct: source: E. coli C41 (DE3), co-expressed with His6-QhpD; QhpCD complex purified (HisTrap, Strep trap); QhpD removed by heat denaturation (60 °C, 20 min) after the QhpD-catalyzed thioether bond formation; not shown: Twin-Strep (St2), C-terminal, kept
T1 chain: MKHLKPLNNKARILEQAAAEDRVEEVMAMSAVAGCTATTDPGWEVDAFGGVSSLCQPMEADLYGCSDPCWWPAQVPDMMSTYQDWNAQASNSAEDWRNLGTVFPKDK
Assay: BLI; BLItz system; linear or crosslinked QhpC immobilised through the St2-tag on streptavidin-coated biosensors; QhpG as analyte; 10 mM Tris-HCl pH 7.4, 150 mM NaCl, 0.1% BSA, 0.02% Tween 20; 25 °C; reference with a ligand-free biosensor; global analysis
Conditions: both partners purified

Molecule | Kd [nM] | koff [s⁻¹] | kon [M⁻¹ s⁻¹]
QhpG from Pseudomonas putida IFO 15366 (wild-type) (enzyme, Monomer by gel filtration; From the His6-TEV oligonucleotide, a few residues (G, H) may remain before Met1 after TEV cleavage; this is surmised; also called PpQhpG; peptidyl tryptophan dihydroxylase; source: E. coli C41 (DE3), purified (Ni-Sepharose FF, HisTrap HP; His6-tag removed with TEV protease, second HisTrap HP); not shown: His6, N-terminal, cleaved) MAEPRIVVLGAGPAGAATAIGLRRLGYAVTVVSEWRRFAAVEGVSQRVLEGLRHVGLGGALRQAAMPATRQVHWNGQQLHLNQEFLLDRQRFDRALRDDLQRAGVSVVEGRVREVVRDVGHGIRLDDGQVLQADFLVEARGRQAPLAADRLRGPETVSLLNVWQAAPGAPASAVESLADGWAWMARLEDGRCYWQVTLDAAGLPGKAGLADYCAARRADSALVTELFDARALASAEVHARSSTAILAGECVGQDWIRVGDAAMAVDPLSGNGIFQSLSSALQAPVVINTLLRRPERAGLARQFHQQRIEQLFLRFARIGRDFYGQEQGRVGQPFWARRQGWPDMQALHVAADWSAVRVERRPVLRDGLVDEAEVVVTADQPLGVWHLQGVELAPAVRELQAGRPLEAVVSGLSGEQQRMVRRWLLEQGLV | 28 ± 2.3 | 0.014 | 490000
QhpG R70A mutant (Pseudomonas putida) (enzyme, R70A is still to be applied; source: E. coli C41 (DE3), purified (Ni-Sepharose FF, HisTrap HP; His6-tag removed with TEV protease, second HisTrap HP); not shown: His6, N-terminal, cleaved) MAEPRIVVLGAGPAGAATAIGLRRLGYAVTVVSEWRRFAAVEGVSQRVLEGLRHVGLGGALRQAAMPATAQVHWNGQQLHLNQEFLLDRQRFDRALRDDLQRAGVSVVEGRVREVVRDVGHGIRLDDGQVLQADFLVEARGRQAPLAADRLRGPETVSLLNVWQAAPGAPASAVESLADGWAWMARLEDGRCYWQVTLDAAGLPGKAGLADYCAARRADSALVTELFDARALASAEVHARSSTAILAGECVGQDWIRVGDAAMAVDPLSGNGIFQSLSSALQAPVVINTLLRRPERAGLARQFHQQRIEQLFLRFARIGRDFYGQEQGRVGQPFWARRQGWPDMQALHVAADWSAVRVERRPVLRDGLVDEAEVVVTADQPLGVWHLQGVELAPAVRELQAGRPLEAVVSGLSGEQQRMVRRWLLEQGLV | 48 ± 3.6 | 0.022 | 470000
QhpG W183F mutant (Pseudomonas putida) (enzyme, W183F is still to be applied; source: E. coli C41 (DE3), purified (Ni-Sepharose FF, HisTrap HP; His6-tag removed with TEV protease, second HisTrap HP); not shown: His6, N-terminal, cleaved) MAEPRIVVLGAGPAGAATAIGLRRLGYAVTVVSEWRRFAAVEGVSQRVLEGLRHVGLGGALRQAAMPATRQVHWNGQQLHLNQEFLLDRQRFDRALRDDLQRAGVSVVEGRVREVVRDVGHGIRLDDGQVLQADFLVEARGRQAPLAADRLRGPETVSLLNVWQAAPGAPASAVESLADGWAFMARLEDGRCYWQVTLDAAGLPGKAGLADYCAARRADSALVTELFDARALASAEVHARSSTAILAGECVGQDWIRVGDAAMAVDPLSGNGIFQSLSSALQAPVVINTLLRRPERAGLARQFHQQRIEQLFLRFARIGRDFYGQEQGRVGQPFWARRQGWPDMQALHVAADWSAVRVERRPVLRDGLVDEAEVVVTADQPLGVWHLQGVELAPAVRELQAGRPLEAVVSGLSGEQQRMVRRWLLEQGLV | 37 ± 19 | 0.013 | 360000
QhpG R314A mutant (Pseudomonas putida) (enzyme, R314A is still to be applied; source: E. coli C41 (DE3), purified (Ni-Sepharose FF, HisTrap HP; His6-tag removed with TEV protease, second HisTrap HP); not shown: His6, N-terminal, cleaved) MAEPRIVVLGAGPAGAATAIGLRRLGYAVTVVSEWRRFAAVEGVSQRVLEGLRHVGLGGALRQAAMPATRQVHWNGQQLHLNQEFLLDRQRFDRALRDDLQRAGVSVVEGRVREVVRDVGHGIRLDDGQVLQADFLVEARGRQAPLAADRLRGPETVSLLNVWQAAPGAPASAVESLADGWAWMARLEDGRCYWQVTLDAAGLPGKAGLADYCAARRADSALVTELFDARALASAEVHARSSTAILAGECVGQDWIRVGDAAMAVDPLSGNGIFQSLSSALQAPVVINTLLRRPERAGLARQFHQQRIEQLFLAFARIGRDFYGQEQGRVGQPFWARRQGWPDMQALHVAADWSAVRVERRPVLRDGLVDEAEVVVTADQPLGVWHLQGVELAPAVRELQAGRPLEAVVSGLSGEQQRMVRRWLLEQGLV | 78 ± 28 | 0.011 | 140000
QhpG R47A mutant (Pseudomonas putida) (enzyme, R47A is still to be applied; source: E. coli C41 (DE3), purified (Ni-Sepharose FF, HisTrap HP; His6-tag removed with TEV protease, second HisTrap HP); not shown: His6, N-terminal, cleaved) MAEPRIVVLGAGPAGAATAIGLRRLGYAVTVVSEWRRFAAVEGVSQAVLEGLRHVGLGGALRQAAMPATRQVHWNGQQLHLNQEFLLDRQRFDRALRDDLQRAGVSVVEGRVREVVRDVGHGIRLDDGQVLQADFLVEARGRQAPLAADRLRGPETVSLLNVWQAAPGAPASAVESLADGWAWMARLEDGRCYWQVTLDAAGLPGKAGLADYCAARRADSALVTELFDARALASAEVHARSSTAILAGECVGQDWIRVGDAAMAVDPLSGNGIFQSLSSALQAPVVINTLLRRPERAGLARQFHQQRIEQLFLRFARIGRDFYGQEQGRVGQPFWARRQGWPDMQALHVAADWSAVRVERRPVLRDGLVDEAEVVVTADQPLGVWHLQGVELAPAVRELQAGRPLEAVVSGLSGEQQRMVRRWLLEQGLV | 1500 ± 490 | 0.023 | 15000
QhpG E42A mutant (Pseudomonas putida) (enzyme, E42A is still to be applied; source: E. coli C41 (DE3), purified (Ni-Sepharose FF, HisTrap HP; His6-tag removed with TEV protease, second HisTrap HP); not shown: His6, N-terminal, cleaved) MAEPRIVVLGAGPAGAATAIGLRRLGYAVTVVSEWRRFAAVAGVSQRVLEGLRHVGLGGALRQAAMPATRQVHWNGQQLHLNQEFLLDRQRFDRALRDDLQRAGVSVVEGRVREVVRDVGHGIRLDDGQVLQADFLVEARGRQAPLAADRLRGPETVSLLNVWQAAPGAPASAVESLADGWAWMARLEDGRCYWQVTLDAAGLPGKAGLADYCAARRADSALVTELFDARALASAEVHARSSTAILAGECVGQDWIRVGDAAMAVDPLSGNGIFQSLSSALQAPVVINTLLRRPERAGLARQFHQQRIEQLFLRFARIGRDFYGQEQGRVGQPFWARRQGWPDMQALHVAADWSAVRVERRPVLRDGLVDEAEVVVTADQPLGVWHLQGVELAPAVRELQAGRPLEAVVSGLSGEQQRMVRRWLLEQGLV | 65 ± 8.1 | 0.011 | 170000

Target: T2, linear QhpC (nascent QhpC polypeptide with the 28-residue leader peptide and a C-terminal Twin-Strep tag, … (Pseudomonas putida IFO 15366 (NBRC …)))
T2 construct: also called QhpC-St2; source: E. coli C41 (DE3), co-expressed with His6-QhpD; QhpCD complex purified (HisTrap, Strep trap); QhpD removed by heat denaturation (60 °C, 20 min) before the QhpD-catalyzed reaction; not shown: Twin-Strep (St2), C-terminal, kept
T2 chain: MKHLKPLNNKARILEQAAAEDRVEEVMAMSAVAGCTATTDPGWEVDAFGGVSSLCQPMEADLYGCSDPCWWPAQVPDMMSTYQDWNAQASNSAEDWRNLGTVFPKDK
Assay: as above
Conditions: both partners purified

Molecule | Kd [nM] | koff [s⁻¹] | kon [M⁻¹ s⁻¹]
QhpG from Pseudomonas putida IFO 15366 (wild-type) (enzyme, Monomer by gel filtration; From the His6-TEV oligonucleotide, a few residues (G, H) may remain before Met1 after TEV cleavage; this is surmised; also called PpQhpG; peptidyl tryptophan dihydroxylase; source: E. coli C41 (DE3), purified (Ni-Sepharose FF, HisTrap HP; His6-tag removed with TEV protease, second HisTrap HP); not shown: His6, N-terminal, cleaved) MAEPRIVVLGAGPAGAATAIGLRRLGYAVTVVSEWRRFAAVEGVSQRVLEGLRHVGLGGALRQAAMPATRQVHWNGQQLHLNQEFLLDRQRFDRALRDDLQRAGVSVVEGRVREVVRDVGHGIRLDDGQVLQADFLVEARGRQAPLAADRLRGPETVSLLNVWQAAPGAPASAVESLADGWAWMARLEDGRCYWQVTLDAAGLPGKAGLADYCAARRADSALVTELFDARALASAEVHARSSTAILAGECVGQDWIRVGDAAMAVDPLSGNGIFQSLSSALQAPVVINTLLRRPERAGLARQFHQQRIEQLFLRFARIGRDFYGQEQGRVGQPFWARRQGWPDMQALHVAADWSAVRVERRPVLRDGLVDEAEVVVTADQPLGVWHLQGVELAPAVRELQAGRPLEAVVSGLSGEQQRMVRRWLLEQGLV | 2800 ± 22 | 0.16 | 59000

Target: crosslinked QhpC (quinone-less QhpC of Ps. putida with three intra-peptidyl thioether bonds, the 28-residue leader peptide and a C-terminal Twin-Strep tag) (Pseudomonas putida IFO 15366 (NBRC 15366))
Assay: BLI; BLItz; QhpC immobilised through the St2-tag on streptavidin-coated biosensors, QhpG as analyte; 10 mM Tris-HCl, pH 7.4, 150 mM NaCl, 0.1% BSA, 0.02% Tween 20, 25 °C; global analysis
Conditions: not given

Molecule | fold higher affinity (KD) than for linear QhpC [fold]
QhpG from Pseudomonas putida (flavoprotein monooxygenase, peptidyl tryptophan dihydroxylase), tag-less wild type (enzyme) | 100
